Test results as given in patent publication US11667714 (MERUS N V, dated 2023).

Experiments:
[1] = biological target: PD-L1 on CHO cells expressing PD-L1 and a T cell activator (Promega) (UniProt Q9NZQ7 19-290); assay: cell-based or functional assay
[2] = biological target: T1, PD-L1 on activated human T cells (human, UniProt Q9NZQ7 19-290); assay: FACS on anti-CD3 activated human T cells, goat anti-human IgG-PE, MFI [upper panel]
T1 construct: whole, on cells

[3] = biological target: T2, PD-1 on activated human T cells (human, UniProt Q15116 25-288); assay: FACS on anti-CD3 activated human T cells, goat anti-human IgG-PE, MFI [lower panel]
T2 construct: whole, on cells
T2 sequence (Q15116 25-288): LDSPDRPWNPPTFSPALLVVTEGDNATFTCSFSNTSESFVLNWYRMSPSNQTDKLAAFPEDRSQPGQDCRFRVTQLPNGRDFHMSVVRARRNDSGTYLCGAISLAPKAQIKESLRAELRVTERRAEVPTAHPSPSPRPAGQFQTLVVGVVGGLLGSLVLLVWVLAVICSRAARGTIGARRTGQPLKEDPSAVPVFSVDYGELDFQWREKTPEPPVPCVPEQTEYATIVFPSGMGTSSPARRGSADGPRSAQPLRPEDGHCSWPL

Chain of PD-L1 on CHO cells expressing PD-L1 and a T cell activator (Promega) (Q9NZQ7 19-290): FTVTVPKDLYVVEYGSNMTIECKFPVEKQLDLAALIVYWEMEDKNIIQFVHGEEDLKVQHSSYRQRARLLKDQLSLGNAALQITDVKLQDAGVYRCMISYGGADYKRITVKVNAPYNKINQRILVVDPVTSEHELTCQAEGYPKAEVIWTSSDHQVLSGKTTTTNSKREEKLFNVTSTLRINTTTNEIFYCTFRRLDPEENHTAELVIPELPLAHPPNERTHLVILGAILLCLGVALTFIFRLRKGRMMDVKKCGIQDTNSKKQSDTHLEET
T1 sequence (Q9NZQ7 19-290): as above

Row | Binder | AUC (PD-1/PD-L1 blockade reporter assay, monovalent) [1] | further results
1 | MF5359xMF1337 PD-L1xTT bispecific IgG (PD-L1 monovalent) (bispecific antibody, V domains shown) VH 1: EVQLVQSGAEVKKPGSSVKVSCKASGDTFNTYSITWVRQAPGQGLEWMGSIVPIFGTINNAQKFQGRVTITADKSANTAYMELSSLRSEDTAVYYCARDNTMVRGVDYYYMDVWGKGTMVTVSS VH 2: not shown VL: not shown | 3.9 | –
2 | MF5382xMF1337 PD-L1xTT bispecific IgG (PD-L1 monovalent) (bispecific antibody, V domains shown) VH 1: EVQLVQSGAEVKNPGSSVKVSCKATGGTFNTYGTNWVRQAPGQGLEWMGGIIPIFGTANYAQKFQGRVTITADKSTTTAYMEVSSLRSEDTAVYYCARGGADMGTLDYWGQGTLVTVSS VH 2: not shown VL: not shown | 2.9 | –
3 | PG7689 (antibody, V domains shown, also called parental anti-PD-L1 IgG of MF6974xMF7689; MF7689 in bivalent IgG format) VH: QVQLVQSGAEVKKPGSSVRVSCKASGGTFNTYAINWVRQAPGQGLEWVGRIIPIFGTANYAQKFQGRVTISADKSTTTAYMELSSLRSEDTAVFYCAKDETGYSSSNFQHWGRGTLVTVSS VL: not shown | – | EC50 (read off the curve) [2]: ~0.04 µg/mL
4 | MF5557xMF1337 PD-L1xTT bispecific IgG (PD-L1 monovalent) (bispecific antibody, V domains shown) VH 1: QVQLVQSGAEVKRPGSSVKVSCKASGGTFNTYSITWVRQAPGQGLEWMGGIIPVFGTSKYAQKFQDRVTITADKSTNTAYMELSSLRSEDTAVYYCARDPSFSSSSGWFDPWGQGTLVTVSS VH 2: not shown VL: not shown | 3.4 | –
5 | parental anti-PD-1 IgG PG7686 (antibody, V domains shown, bivalent monospecific IgG; also called MF7686 in bivalent IgG format; copies: 2 + 2) VH: QVQLVQSGAEVKKPGSSMKVSCKASGGSFSSAVISWVRQAPGQGLEWMGMIIPVFDTASYAKKFQGRVTITADKSTNTVYMELSRLRSEDAAVYYCARGTVEATLLFDYWGRGTLVTVSS VL: not shown | – | EC50 (read off the curve) [3]: ~0.04 µg/mL
6 | MF6974 as a bivalent antibody (antibody, V domains shown, bivalent anti-PD-1 IgG; copies: 2 + 2) VH: EVQLVESGGDLVQPGGSLRLSCAASGFTFNSYAMSWVRQAPGKGLEWVSTISGGGANIYYADSVKGRFTISRDNSKSTLYLQMNSLRAEDTAVYFCASPYGSGYFDVWGQGTLVTVSS VL: not shown | – | EC50 (read off the curve) [3]: ~0.05 µg/mL
7 | MF5576xMF1337 PD-L1xTT bispecific IgG (PD-L1 monovalent) (bispecific antibody, V domains shown) VH 1: QVQLVQSGSELKKPGASVKVSCKASGYTFTSHAMNWVRQAPGQGLEWMGWINPNTGNPTYAQGFTGRFVFSLDTSVSTAYLQISSLKAEDTAVYYCAIDRGYMSNWVFAEYFPHWGQGTLVTVSS VL: not shown VH 2: not shown | 4.1 | –
